Numbering of substitutions follows the chain as printed. Names may count otherwise.
Tests used:
CpsUbiX = biological target: T1, CpsUbiX (Colwellia psychrerythraea, UniProt Q489U8); assay: X-ray crystal structure, […] Å; type: binding; conditions: co-purified from E. coli; crystals at pH 5.8; site at the interface of three subunits
T1 construct: gene ubiX; full length, residues 1-206, pET-28a(+) NdeI/XhoI, E. coli BL21(DE3), His-tag cleaved with thrombin, dodecamer; FMN site formed by three neighbouring subunits

[1] = biological target: the molecule itself; assay: crystal structure; wild type CpsUbiX with bound FMN; space group C222(1), 6 monomers in the asymmetric unit, dodecamer generated by crystallographic symmetry; 200 mM NaCl, 100 mM potassium/sodium phosphate pH 5.8, 11% PEG-8000; 1.9 Å
[2] = biological target: the molecule itself; assay: crystal structure; V47S mutant CpsUbiX without FMN; space group P23, one molecule in the asymmetric unit, dodecamer generated by crystallographic symmetry; 0.1 M tri-sodium citrate pH 5.4, 0.5 M ammonium sulfate, 1.2 M lithium sulfate, 293 K; 1.76 Å

For Cc1cc2nc3c(=O)[nH]c(=O)nc-3n(C[C@H](O)[C@H](O)[C@H](O)COP(=O)(O)O)c2cc1C [FMN], the “X-ray crystal structure, 1.9 Å” value (CpsUbiX) was “FMN-bound (wild type) and FMN-free (V47S mutant) CpsUbiXs were deposited in the Protein Data Bank”.

B1: Colwellia psychrerythraea 34H UbiX protein (CpsUbiX), wild type, FMN-bound form (enzyme, UniProt Q489U8 1-206, looked up)
chain: MNNDFNGKITLAITGASGASYAMRLIECLIAANYQLYILCSSAGRIVLDTEVGVKIPSSPDAASKFLTEKYQAKDQQITVFGKEQWFSPVASGSSAPKQMVVCPCSTGTMAAICHGMSDNLIERAADVVIKERGQLILMVRETPFSTLHLQNMLSLSQQGVTIMPASPGFYHKVETIEDLIDFMVGRVLDHLGIEQDIMPRWGYNI
notes: UbiX (3-octaprenyl-4-hydroxybenzoate carboxylase) of Colwellia psychrerythraea strain 34H (ATCC BAA-681), UniProt Q489U8, full-length gene, residues 1-206; Cloned between the NdeI and XhoI sites of pET-28a(+); the His-tag was cleaved with thrombin, so a few vector residues probably remain at the N-terminus (surmised); also called 3-octaprenyl-4-hydroxybenzoate carboxylase; wild type CpsUbiX; …
With B1 the “stoichiometry N” value [1] was 12.

B2: V47S mutant CpsUbiX (FMN-free form) (enzyme, Colwellia psychrerythraea 34H, UniProt Q489U8 1-206, looked up)
chain: B1 chain with V47S
notes: UbiX (3-octaprenyl-4-hydroxybenzoate carboxylase) of Colwellia psychrerythraea strain 34H, UniProt Q489U8, residues 1-206, with V47S; it was expressed and purified as the wild type; also called V47S CpsUbiX; FMN-free CpsUbiX; source: E. coli BL21 (DE3), purified by methods similar to the wild type (Ni-NTA, thrombin cleavage, Superdex-200 SEC); copies: 12
With B2 the “stoichiometry N” value [2] was 12.

From PMC4316190, “Crystal structure of UbiX, an aromatic acid decarboxylase from the psychrophilic bacterium Colwellia psychrerythraea that undergoes FMN-induced conformational changes” (Scientific Reports, 2015)
